Assay results as given in US20260078416A1, “ORTHOGONAL METABOLIC FRAMEWORK FOR ONE-CARBON UTILIZATION” (Mojia Biotech Pte. Ltd., priority 2021, published 2026).

How the values were obtained:
[1] = system: glycolate production from formaldehyde; experiment: Resting-cell bioconversion pathway 1 (HACS with LmACR-EcAldA), formaldehyde as sole carbon source; assay type: cell-based, E. coli; conditions: for glycolate productivity (glycolyl-CoA synthase activity) compared with RuHACL: 5 mM formaldehyde as sole carbon source
Description: We used glycolic acid (glycolate) productivity per cell density (uM glycolate/OD600) as indicator of HACS activity. Two different enzymatic routes for glycolate synthesis are explored. The first pathway (pathway 1) is similar to the pathway used for initial screening in Example 2 with addition of an extra gene, aldehyde dehydrogenase aldA from Escherichia coli (EcAldA) overexpressed to drive flux from glycolaldehyde to glycolate (FIG. 21A). In addition, HACS and LmACR-AldA are controlled under independent inducible promoters to investigate the impact of varying relative gene expressions (FIG. 21B). The second pathway (pathway 2) involves independent fluxes of formaldehyde and formyl-CoA allowing assessment of the enzyme activity with response to changing formaldehyde concentration only, while maintaining constant formyl-CoA flux. Formyl-CoA is generated by formic acid (formate) catalyzed by the acyl-CoA transferase from Clostridium aminobutyricum (CaAbfT) (FIG. 22A).
For the in vivo prototyping, we engineered vectors to independently control expression of HACS variants and the LmACR-EcAldA (pathway 1, FIG. 21A) or CaAbfT (pathway 2, FIG. 22A), with HACS under control of the IPTG-inducible T7 promoter in pCDFDuet-1 and LmACR-EcAldA or CaAbfT under control of a cumate-inducible T5 promoter in pETDuet-1 (FIG. 21B). As a host for these vectors, we used an engineered strain of E. coli based on MG1655(DE3) with knockouts for formaldehyde (ΔfrmA) and formate (ΔfdhF ΔfdnG ΔfdoG) oxidation as well as for glycolate utilization (ΔglcD)), which we expected could compete or interfere with the analysis of our pathway. […]
Cells from the above pre-cultures were then centrifuged (4000 rpm, 22° C.), washed with the above minimal media without any carbon source, and resuspended with 1 mL of above minimal media containing indicated amounts of carbon source. […] The cells were harvested after 3 hours for LmACR-EcAldA co-expression and 1 hour for CaAbfT co-expression by centrifugation and the supernatant analyzed by HPLC or GC-MS as described in EXAMPLE 2. […]

[2] = system: 2,4-dihydroxybutyric acid production from 3-hydroxypropionaldehyde and formate; experiment: HACS screening with 3-hydroxypropionaldehyde and formate (DHB productivity); assay type: cell-based, E. coli; conditions: 5 mM 3HP and 20 mM formate, first round
Description: We used 2-hydroxyacid productivity per cell density (μM/OD600) as indicator of HACS activity. 2-Hydroxyacids can be produced co-feeding various aldehydes and formic acid (formate) as carbon source in the presence of active HACS variant and acyl-CoA transferase from Clostridium aminobutyricum (CaAbfT). CaAbfT is shown to be capable of catalyzing reaction from formate to formyl-CoA (Nattermann, M., et al. ACS Catal 11 (9): 5396-5404 (2021)). HACS condenses aldehyde and formyl-CoA to form 2-hydroxyacyl-CoA, which can then be hydrolyzed to 2-hydroxyacid via native thioesterase activities (FIG. 31A).
For the in vivo prototyping, we engineered vectors to independently control expression of HACS variants and CaAbfT, with HACS under control of the IPTG-inducible T7 promoter in pCDFDuet-1 and CaAbfT under control of a cumate-inducible T5 promoter in pETDuet-1 (FIG. 31B) and transformed them into the engineered strain of E. coli described in EXAMPLE 3.
The HACS variants were screened for 2-hydroxyacid production using the high throughput screening platform as described in EXAMPLE 3 by co-feeding 5 mM aldehyde and 20 mM formate. The cells were harvested after 1 hour by centrifugation and the supernatant analyzed by HPLC (as described in EXAMPLE 2) or SoGO method.
We used 2,4-dihydroxybutyric acid (DHB) productivity per cell density (uM DHB/OD600) as indicator of HACS activity. […]

Row | Molecule | glycolate productivity (glycolyl-CoA synthase activity) compared with RuHACL [1] | glycolate productivity relative to RuHACL ([1]; 5 mM formaldehyde sole carbon source, optimal inducer concentrations, 3 hours) | DHB productivity [2]
1 | JGI15: HACS variant; GenBank HAK63664.1 (protein) MAKSEGKVNGATLMARALQQQGVQYMFGIVGFPVIPIAIAAQREGITYIGMRNEQSASYAAQAASYLTGRPQACLVVSGPGVVHALAGLANAQVNCWPMLLIGGASAIEQNGMGAFQEERQVLLASPLCKYAHQVERPERIPYYVEQAVRSALFGRPGAAYLDMPDDVILGEVEEAAVRPAATVGEPPRSLAPQENIEAALDALQSAKRPLVIVGKGMAWSRAENEVRQFIERTRLPFLATPMGKGVMPDDHPLSVGGARSHALQEADLVFLLGARFNWILHFGLPPRYSKDVRVIQLDLSAEEIGNNRQAEVALVGDGKAIVGQLNQALSSRQWFYPAETPWREAIAAKIAGNQAAVAPMIADNTSPMNYYRVYRDIAARLPRNAIIVGEGANTMDIGRTQMPNFEPRSRLDAGSYGTMGIGLGFAVAAAAVHPGRPVIAVQGDSAFGFSGMEFETAARYGMPIKVIILNNGGIGMGSPAPRDGQPGMPHALSHDARYERIAEAFGGAGFYVTDSAELGPALDAAMAFKGPAIVNIKIAATADRKPQQFNWHG | exceeding the starting reference enzyme, RuHACL | 2.5 fold | decent DHB productivity
2 | JGI20: HACS variant; GenBank PWB41796.1 (protein) MGQITGAQIVARALKQQGVEYMFGIVGIPVIPIAMFAQREGIKFYGFRNEQSASYAAAAVGYLTGRPGVCLGVSGPGMIHGVAGMANAWSNCWPMILIGGANDSYQNGQGAFQEAPQIEAARPFAKYCARPDSLARLPFYVEQAVRTSIYGRPGAVYLDLPGDIITGAMEEEDVHFPPRCPDAPRMMAPQESIDAAMAALKSAERPLVIVGKGAAYSRAENEVREFLETTQLPYLASPMGKGVMPDDHPLSIAPARSAALLGADVILLMGARLNWMMHFGHPPRFDPKVRVIQMDISAEEIGTNVPTEVALVGDAKAITTQLNASLKQQPWQYPSETTWWTGLRKKIDENGATVAEMMADESVPMSYYRVYREIRDLIPNDAIIQNEGASTMDIGRTLMPNFLPRHRLDAGSFGTMGVGLGQAIAAAAVHPDKHVFCIEGDSAFGFSGMEVETAARYGMKNITFIIINNNGIGGGPDTLDPTRVPPSAYTPNAHYEKMAEIYGGKGYFVTEPSQLRPALEEAIKADKPAIVNIMISATSQRKPQQFAWLTR | exceeding the starting reference enzyme, RuHACL | – | decent DHB productivity
